Data published in the DeepSol protein solubility set.

assay: soluble on expression in E. coli; label from the status in PepcDB or PDB records

Soluble on expression in E. coli, soluble:
GMNGFSQLEGLRGHPSVVRVIGHRGARGVMPENTLEGFAFTLAAGVRALEFDVVMTADGVPVVTHNHHLANAMTRDGQGHWLTGAERQVAEMTYAEIRALDVGGLDGRTVYGRRFPDQAFLTGIHVPRLGELLDLCAGYGDQAPYLLLELKSDPALMHDHAARAEMVAAVLADVRRYRMEPRTVMHSFDWALLGECRRQAPDLPTSYLSQLPENADDPGEDSAKPVGPDYDRMTESLPQAVASAGGQLWCPYFLDVTPELVAEAHDLGLIVLTWTVNEPEDIRRMATTGVDGIVTDYPGRTQRILIDMGLSWT, GMNIEKTRFCINRKIAPGLSIEAFFRLVKRLEFNKVELRNDMPSGSVTDDLNYNQVRNLAEKYGLEIVTINAVYPFNQLTEEVVKKTEGLLRDAQGVGARALVLCPLNDGTIVPPEVTVEAIKRLSDLFARYDIQGLVEPLGFRVSSLRSAVWAQQLIREAGSPFKVLLDTFHHHLYEEAEKEFASRIDISAIGLVHLSGVEDTRPTEALADEQRIMLSEKDVMQNYQQVQRLENMGYRGIYAFEPFSSQLASWSEAEIEEQINRSVSLLLQ, GMNRLRTSFQQTTGQISGHGKRNVGVLKTAFAAVADEMASDQYGTGAIIEPFEQKFADVLGMDDAVFFPSGTMAQQVALRIWSDETDNRTVAYHPLCHLEIHEQDGLKELHPIETILVGAADRLMTLDEIKALPDIACLLLELPQREIGGVAPAFSELETISRYCRERGIRLHLDGARLFEMLPYYEKTAAEIAGLFDSIYISFYKGLGGIAGAILAGPAAFCQTARIWKRRYGGDLISLYPYIVSADYYYELRKDRMGQYYEQAKQLAEQFNALPGVHTTPEVPVSNMFHLHFDGQAADISPKLEQVQEETGLGFVGYLVDKDGYCSTEISVGDAYGELDQQTRDAGFARLRQAFS, GMNSPKNSLYEEKSGHYYNAVNPNLLKHIKKEWKEVLDIGCSSGALGAAIKENGTRVSGIEAFPEAAEQAKEKLDHVVLGDIETMDMPYEEEQFDCVIFGDVLEHLFDPWAVIEKVKPYIKQNGVILASIPNVSHISVLAPLLAGNWTYTEYGLLDKTHIRFFTFNEMLRMFLKAGYSISKVDRVYVDHKMYEPLIEELYGICKKYRLGSGFMAETVVFQYIIEAEKSQL, GMQQPTASVVSYVAEYHKATETTMGRYKKVIEITGHDEVAAKLLEGLIDAGTRYFSKVVEMEHRMASARFRLDGEELRELTETLDRSRRLAHESLISSLHVFNRYIVKEYGEELKEAGIEGGIFPKPEANRDRIAIADWAGELLTGIYENRHR, GMSSKQHCVKLNDGHLIPALGFGTYKPKEVPKSKSLEAACLALDVGYRHVDTAYAYQVEEEIGQAIQSKIKAGVVKREDLFVTTKLWCTCFRPELVKPALEKSLKKLQLDYVDLYIMHYPVPMKSGDNDFPVNEQGKSLLDTVDFCDTWERLEECKDAGLVKSIGVSNFNHRQLERILNKPGLKYKPVCNQVECHLYLNQRKLLDYCESKDIVLVAYGALGTQRYKEWVDQNSPVLLNDPVLCDVAKKNKRSPALIALRYLIQRGIVPLAQSFKENEMRENLQVFGFQLSPEDMKTLDGLNKNFRYLPAEFLVDHPEYPFVEEY, GMSVNGIEVAKPFIAATVNVLSTMAGIQPQPGKPYVKKNNVAKGDVSAVIGITGHKNGSISVTFTKSCAIALVKGMLGDDIQDILQDTKDAVGEVTNMISGQARAGLAEMGMVFQGSTPSVIMGDGHTISHVTKSPIMAIPFLTNHGEFTVEFCFE, GMTMPIFNISDDVDLVPAMPAEGRDGGSYRRQIWQDDVENGTIVAVWMAEPGIYNYAGRDLEETFVVVEGEALYSQADADPVKIGPGSIVSIAKGVPSRLEILSSFRKLATVIPKP, GMTRTMSFHKNCELCTTAGGEILWQDALCRVVHVENQDYPGFCRVILNRHVKEMSDLRPAERDHLMLVVFAVEEAVREVMRPDKINLASLGNMTPHVHWHVIPRFKRDRHFPNSVWGETKRESLPQALDQGSTTALKKAISVRLDQGEPVFMGM, GMTSREDEIRDFLATHGYADWNRTPLAGDASSRRYQRLRSPTGAKAVLMDWSPEEGGDTQPFVDLAQYLRNLDISAPEIYAEEHARGLLLIEDLGDALFTEVINNDPAQEMPLYRAAVDLLIHLHDAQTPELARLDPETLSEMTRLAFSEYRYAILGDAAEDNRKRFEHRFAQILSAQLEGDMVFVHRDFHAQNLLWLPEREGLARVGVIDFQDAKLGHRAYDLVSLLQDARRDVPAQVEAQMIDHYIQATGVDESHFRSAYAVIAVQRNMRILGIFARLSQRFGKRHYIEFVPRVWAHFERGLAHPALASAAEEILNALPAPAPEVLERLRA
